Data from PMC6712834, “SUMOylation regulates USP5-Cav3.2 calcium channel interactions” (Molecular Brain, 2019).

Biological target: T1, Cav3.2-GFP tagged calcium channel (human, UniProt O95180 1-2353)
T1 construct: also called Cav3.2 T-type calcium channel; source: tsA-201 cells, transfected (lipofectamine 2000), in lysate; not shown: GFP, C-terminal, kept
Test: co-IP; tsA-201 cells co-expressing Cav3.2-GFP and mCherry-USP5 (WT or K113R); lysed in modified RIPA buffer (50 mM Tris, 100 mM NaCl, 0.2% Triton X-100, 0.2% NP-40, 10 mM EDTA, pH 7.5); Cav3.2-GFP precipitated with anti-GFP antibody and Protein G/A beads overnight at 4 °C; blot probed with mCherry antibody; densitometry
Conditions: partners not purified

T1 sequence (O95180 whole entry): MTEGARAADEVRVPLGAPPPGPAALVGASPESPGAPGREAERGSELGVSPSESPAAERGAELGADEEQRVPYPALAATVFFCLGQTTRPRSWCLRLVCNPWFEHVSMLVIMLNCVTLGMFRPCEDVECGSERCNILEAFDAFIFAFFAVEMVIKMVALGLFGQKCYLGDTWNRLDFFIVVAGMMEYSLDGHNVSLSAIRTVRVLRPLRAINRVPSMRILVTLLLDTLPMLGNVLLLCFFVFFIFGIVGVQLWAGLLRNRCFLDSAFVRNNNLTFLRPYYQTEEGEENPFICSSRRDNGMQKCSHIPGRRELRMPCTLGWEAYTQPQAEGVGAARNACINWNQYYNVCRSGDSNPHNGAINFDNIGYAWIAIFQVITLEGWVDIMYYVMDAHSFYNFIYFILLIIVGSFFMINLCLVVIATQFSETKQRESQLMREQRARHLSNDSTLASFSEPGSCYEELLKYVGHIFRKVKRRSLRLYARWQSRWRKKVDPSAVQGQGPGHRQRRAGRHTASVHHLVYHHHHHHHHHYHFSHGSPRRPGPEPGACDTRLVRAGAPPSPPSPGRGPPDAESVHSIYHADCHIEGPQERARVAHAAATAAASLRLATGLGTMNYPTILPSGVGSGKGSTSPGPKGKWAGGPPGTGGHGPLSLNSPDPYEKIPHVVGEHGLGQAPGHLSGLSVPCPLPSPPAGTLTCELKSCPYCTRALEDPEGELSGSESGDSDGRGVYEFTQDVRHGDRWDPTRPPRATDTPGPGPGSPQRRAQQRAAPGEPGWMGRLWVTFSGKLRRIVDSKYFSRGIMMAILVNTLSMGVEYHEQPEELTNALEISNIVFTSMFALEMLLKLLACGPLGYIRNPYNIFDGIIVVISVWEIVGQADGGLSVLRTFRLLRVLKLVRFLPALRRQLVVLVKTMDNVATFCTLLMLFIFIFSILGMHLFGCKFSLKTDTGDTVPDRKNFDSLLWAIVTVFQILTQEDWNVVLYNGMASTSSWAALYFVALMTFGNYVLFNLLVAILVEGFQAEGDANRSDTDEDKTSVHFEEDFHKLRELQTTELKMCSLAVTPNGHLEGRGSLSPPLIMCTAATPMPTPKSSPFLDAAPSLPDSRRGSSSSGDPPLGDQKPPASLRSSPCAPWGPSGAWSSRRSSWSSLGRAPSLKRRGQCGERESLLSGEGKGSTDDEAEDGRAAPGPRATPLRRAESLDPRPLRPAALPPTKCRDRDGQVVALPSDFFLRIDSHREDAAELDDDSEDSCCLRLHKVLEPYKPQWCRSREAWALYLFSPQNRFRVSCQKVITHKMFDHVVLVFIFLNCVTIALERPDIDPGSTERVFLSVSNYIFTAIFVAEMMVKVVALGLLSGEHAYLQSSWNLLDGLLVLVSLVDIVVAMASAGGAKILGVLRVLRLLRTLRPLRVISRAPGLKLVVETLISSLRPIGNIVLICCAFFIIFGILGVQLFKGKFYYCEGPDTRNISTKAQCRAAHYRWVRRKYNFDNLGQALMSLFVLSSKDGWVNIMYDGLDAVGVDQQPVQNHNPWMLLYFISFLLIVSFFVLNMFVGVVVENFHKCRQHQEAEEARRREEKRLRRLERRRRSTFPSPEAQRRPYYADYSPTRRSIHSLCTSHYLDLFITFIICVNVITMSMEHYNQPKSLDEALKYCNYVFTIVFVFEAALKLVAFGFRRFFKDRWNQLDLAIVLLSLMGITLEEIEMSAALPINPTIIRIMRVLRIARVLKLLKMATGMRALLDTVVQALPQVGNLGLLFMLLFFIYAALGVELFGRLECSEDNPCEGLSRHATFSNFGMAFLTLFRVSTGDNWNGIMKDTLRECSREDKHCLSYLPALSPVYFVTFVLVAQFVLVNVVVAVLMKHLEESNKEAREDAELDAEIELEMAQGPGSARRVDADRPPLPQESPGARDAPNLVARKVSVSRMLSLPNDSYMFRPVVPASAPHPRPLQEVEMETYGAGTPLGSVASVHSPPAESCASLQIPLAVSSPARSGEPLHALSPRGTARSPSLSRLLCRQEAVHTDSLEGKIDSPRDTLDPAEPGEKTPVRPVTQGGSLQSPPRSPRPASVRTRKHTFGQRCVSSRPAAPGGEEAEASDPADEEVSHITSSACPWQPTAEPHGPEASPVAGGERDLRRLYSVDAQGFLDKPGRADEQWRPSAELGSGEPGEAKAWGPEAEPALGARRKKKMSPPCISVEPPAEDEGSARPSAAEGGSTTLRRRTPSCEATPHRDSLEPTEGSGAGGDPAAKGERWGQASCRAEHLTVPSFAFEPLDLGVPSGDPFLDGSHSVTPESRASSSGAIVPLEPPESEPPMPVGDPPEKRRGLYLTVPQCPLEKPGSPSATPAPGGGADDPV

B1: mCherry tagged USP5-K113R mutant (enzyme, human, UniProt P45974-1 1-858, looked up)
chain: MAELSEEALLSVLPTIRVPKAGDRVHKDECAFSFDTPESEGGLYICMNTFLGFGKQYVERHFNKTGQRVYLHLRRTRRPKEEDPATGTGDPPRKKPTRLAIGVEGGFDLSEERFELDEDVKIVILPDYLEIARDGLGGLPDIVRDRVTSAVEALLSADSASRKQEVQAWDGEVRQVSKHAFSLKQLDNPARIPPCGWKCSKCDMRENLWLNLTDGSILCGRRYFDGSGGNNHAVEHYRETGYPLAVKLGTITPDGADVYSYDEDDMVLDPSLAEHLSHFGIDMLKMQKTDKTMTELEIDMNQRIGEWELIQESGVPLKPLFGPGYTGIRNLGNSCYLNSVVQVLFSIPDFQRKYVDKLEKIFQNAPTDPTQDFSTQVAKLGHGLLSGEYSKPVPESGDGERVPEQKEVQDGIAPRMFKALIGKGHPEFSTNRQQDAQEFFLHLINMVERNCRSSENPNEVFRFLVEEKIKCLATEKVKYTQRVDYIMQLPVPMDAALNKEELLEYEEKKRQAEEEKMALPELVRAQVPFSSCLEAYGAPEQVDDFWSTALQAKSVAVKTTRFASFPDYLVIQIKKFTFGLDWVPKKLDVSIEMPEELDISQLRGTGLQPGEEELPDIAPPLVTPDEPKGSLGFYGNEDEDSFCSPHFSSPTSPMLDESVIIQLVEMGFPMDACRKAVYYTGNSGAEAAMNWVMSHMDDPDFANPLILPGSSGPGSTSAAADPPPEDCVTTIVSMGFSRDQALKALRATNNSLERAVDWIFSHIDDLDAEAAMDISEGRSAADSISESVPVGPKVRDGPGKYQLFAFISHMGTSTMCGHYVCHIKKEGRWVIYNDQKVCASEKPPKDLGYIYFYQRVAS
notes: Homo sapiens ubiquitin specific peptidase 5 (USP5), open reading frame of GenBank NM_001098536 in pcDNA3.1, point mutant made by PCR; also called SUMO-resistant USP5-K113R; SUMO2/3 resistant USP5-K113R mutant; source: tsA-201 cells, transfected (lipofectamine 2000), in lysate; not shown: mCherry, N-terminal, kept
- fold change of co-precipitated amount against USP5-WT: ~2.2 fold
